Assay results as given in patent US20260132464A1, “CIRCULAR RNAS FOR THE DIAGNOSIS AND TREATMENT OF BRAIN DISORDERS” (UNM Rainforest Innovations, priority 2018, published 2026).

B1: circHomer1b: circRNA generated from the backsplicing of exons 2 and 3 of HOMER1 pre-mRNA (nucleic acid, listed as Homo sapiens)
chain: GGAACAACCTATCTTCAGCACTCGAGCTCATGTCTTCCAAATTGACCCAAACACAAAGAAGAACTGGGTACCCACCAGCAAGCATGCAGTTACTGTGTCTTATTTCTATGACAGCACAAGAAATGTGTATAGGATAATCAGTTTAGATGGCTCAAAGGCAATAATAAATAGTACCATCACCCCAAACATGACATTTACTAAAACATCTCAGAAGTTTGGCCAGTGGGCTGATAGCCGGGCAAACACCGTTTATGGATTGGGATTCTCCTCTGAGCATCATCTTTCGAAA
modifications: circular RNA
notes: circRNA generated from the backsplicing of exons 2 and 3 of HOMER1 pre-mRNA
B2: circCUL4A: circRNA biomarker for brain disorders, increased in OFC of SCZ patients (nucleic acid, listed as Homo sapiens)
chain: GTCACGTCCCGTGTGGCTGTGGAGATCTCTGTGTGACTATGGAGGTTTCATCCATGTGGCTCTGAAGGTCTCTGTGTGACTATGGAGGTCGCGTCCCATGTGGCTGTGGAGGTCGCTGTGTGGCTATGGAG
modifications: circular RNA
notes: circRNA biomarker for brain disorders, increased in OFC of SCZ patients
B3: circHomer1a: circRNA derived from exons 2-5 of Homer protein homolog 1 (HOMER1) (nucleic acid, listed as Homo sapiens)
chain: GGAACAACCTATCTTCAGCACTCGAGCTCATGTCTTCCAAATTGACCCAAACACAAAGAAGAACTGGGTACCCACCAGCAAGCATGCAGTTACTGTGTCTTATTTCTATGACAGCACAAGAAATGTGTATAGGATAATCAGTTTAGATGGCTCAAAGGCAATAATAAATAGTACCATCACCCCAAACATGACATTTACTAAAACATCTCAGAAGTTTGGCCAGTGGGCTGATAGCCGGGCAAACACCGTTTATGGATTGGGATTCTCCTCTGAGCATCATCTTTCGAAATTTGCAGAAAAGTTTCAGGAATTTAAAGAAGCTGCTCGACTAGCAAAGGAAAAATCACAAGAGAAGATGGAACTTACCAGTACACCTTCACAGGAATCCGCAGGCGGGGATCTTCAGTCTCCTTTAACACCGGAAAGTATCAACGGGACAGATGATGAAAGAACACCTGATGTGACACAGAACTCAGAGCCAAGGGCTGAACCAACTCAGAATGCATTGCCATTTTCACATAG
modifications: circular RNA
B4: circADAM22: circRNA derived from the epilepsy-related gene ADAM metallopeptidase domain 22 (ADAM22) (nucleic acid, listed as Homo sapiens)
chain: GTGAATGTAAATGCGAGGACACGTGGTCCGGGTGCATAATGGGAGACACTGGCTATTATCTTCCTAAAAAGTTCACCCAGTGTAATATTGAAGAGTATCATGACTTCCTGAATAGTGGAGGTGGTGCCTGCCTTTTCAACAAACCTTCTAAGCTTCTTGATCCTCCTGAGTGTGGCAATGGCTTCATTGAAACTGGAGAGGAGTGTGATTGTGGAACCCCGGCCGAATGTGTCCTTGAAGGAGCAGAGTGTTGTAAGAAATGCACCTTGACTCAAGACTCTCAATGCAGTGACGGTCTTTGCTGTAAAAAGTGCAAGTTTCAGCCTATGGGCACTGTGTGCCGAGAAGCAGTAAATGATTGTGATATTCGTGAAACGTGCTCAGGAAATTCAAGCCAGTGTGCCCCTAATATTCATAAAATGGATGGATATTCATGTGATGGTGTTCAGGGAATTTGCTTTGGAGGAAGATGCAAAACCAGAGATAGACAATGCAAATACATTTGGGGGCAAAAGGTGACAGCATCAGACAAATATTGCTATGAGAAACTGAATATTGAAGGGACGGAGAAGGGTAACTGTGGGAAAGACAAAGACACATGGATACAGTGCAACAAACGGGATGTGCTTTGTGGTTACCTTTTGTGTACCAATATTGGCAATATCCCAAGGCTTGGAGAACTCGATGGTGAAATCACATCTACTTTAGTTGTGCAGCAAGGAAGAACATTAAACTGCAGTGGTGGGCATGTTAAGCTTGAAGAAGATGTAGATCTTGGCTATGTGGAAGATGGGACACCTTGTGGTCCCCAAATGATGTGCTTAGAACACAGGTGTCTTCCTGTGGCTTCTTTCAACTTTAGTACTTGCTTGAGCAGTAAAGAAGGCACTATTTGCTCAGGAAATGGAGTTTGCAGTAATGAGCTGAAGTGTGTGTGTAACAGACACTGGATAGGTTCTGATTGCAACACTTACTTCCCTCACAATGATGATGCAAAGACTGGTATCACTCTGTCTGGCAATGGTGTTGCTGGCACCAATATCATAATAGGCATAATTGCTGGCACCATTTTAGTGCTGGCCCTCATATTAGGAATAACTGCGTGGGGTTATAA
modifications: circular RNA

What was measured:
circHomer1a = circHomer1a expression (circRNA qRT-PCR) after 2 day drug treatment of stem cell-derived mixed neuronal and astrocyte cultures; format: cell-based; conditions: 2 days treatment, human 6-9 month differentiated stem cell-derived mixed neuronal and astrocyte cultures
From the text: FIG. 6A is a representative bright-field image from 6-9 month differentiated human embryonic stem cell (hESC)-derived mature mixed neuronal and glial cultures.
FIG. 6B is an immunofluorescence image showing the presence of neurons (MAP2, red) and astrocytes (GFAP, green). Scale bar=100 μm.
05, two-tailed one sample t-test. The number of replicates is also shown within the graph.

[1] = system: DLPFC of subjects with SCZ and BD; experiment: circRNA-specific qRT-PCR in postmortem DLPFC of SCZ, BD and Control subjects; set-up: species or system human
From the text: In all graphs individual SCZ, BD, and Control sample values are shown.
A schematic of the exonic nature of circHomer1b is also shown.
(§1) Given that harsh RNAseR treatment can partially digest some circRNAs together with all linear RNAs, thus making circRNA screening semi-quantitative, the present disclosure also provides novel validated and sequence-verified circRNA-specific qRT-PCR primers aimed at the unique circRNA-specific splice junction, which enable the measurement of a subset of dysregulated circRNAs in non RNaseR-treated samples. These primers are shown in FIGS. 3C, 8B, and 14A, B (See also SEQ ID NOS. 2, 3, 5, 6, 8, 9, 11 or 12).

[2] = system: OFC of subjects with SCZ and BD; experiment: circRNA-specific qRT-PCR in postmortem OFC of SCZ, BD and Control subjects; set-up: species or system human; conditions: for circRNA expression in OFC, BD patients vs unaffected Controls / circRNA expression in OFC, SCZ patients vs unaffected Controls: qRT-PCR, postmortem OFC
From the text: 05, based on general linear model correcting for RIN, PMI, RI, and brain pH. A schematic showing the multi-exonic nature of circADAM22 is also shown.
In FIGS. 4A-C, E-F **p<. 01, based on a Univariate General Linear Model corrected for RIN, PMI, RI, and brain pH.
A schematic of the exonic nature of circHomer1b is also shown. In all graphs individual SCZ, BD, and Control sample values are shown. ***p<. 001, based on general linear model correcting for RIN, PMI, RI, and brain pH.
as §1

[3] = system: OFC of subjects with Schizophrenia; experiment: circRNA microarray profiling, OFC of subjects with Schizophrenia vs unaffected controls (Table 4); set-up: species or system human; conditions: relative to Control fold change of circRNA expression
From the text: (§2) Example of circRNA array raw image is also shown.
FIG. 1C is a volcano plot showing differential circRNA expression in SCZ patients vs unaffected Controls (x-axis=relative to control log 2 fold changes; y-axis: negative log 10 of the p-values). Vertical lines correspond to >1.25-fold changes, and the horizontal line represents p<. 05. Example of validated circRNAs are shown in the graph.
(§3) The circRNAs in Tables 3 and 4 were identified by profiling circRNA expression in OFC RNA samples from 34 SCZ, 32 BD, and 34 unaffected control subjects from the Stanley Medical Research Institute.
All circRNA array experiments used for Tables 1-4 were performed by employing a commercially available circRNA microarray platform that uses 13,617 circRNA splice junction probes designed based on previous RNA sequencing and circRNA annotation data (Service sold by Arraystar Inc.). Analysis of circRNA changes in postmortem brain samples from the OFC of subjects with BD uncovered a subset of differentially expressed circRNAs (Table 3) a subset of which stemmed from genes related to synaptic transmission, neuronal development and migration, and short term memory (FIGS. 1A-C, 2A-B), whereas altered circRNAs in SCZ (Table 4 and FIGS. 1A-C, 2A-B) were associated, among others, with the mitogen-activated protein kinase (MAPK/ERK) and protein kinase B (PKB/AKT) pathways. […]

[4] = system: orbitofrontal cortex (OFC) of subjects with Bipolar Disorder; experiment: circRNA microarray profiling, OFC of subjects with Bipolar Disorder vs unaffected Controls (Table 3); set-up: species or system human
From the text: as §2, §3
Additional methods for identifying these brain disorder-associated circRNA biomarkers are discussed below.

[5] = system: stem cell-derived (iPSC) neuronal cultures from patients with SCZ and BD; experiment: circHomer1a levels in iPSC-derived neuronal cultures from SCZ and BD patients vs Control; format: cell-based, human
From the text: 05, two-tailed one sample t-test relative to the Control of the same developmental time-point.
05, two-tailed one sample t-test relative to the Control of the same developmental time-point. In all graphs individual samples are shown.

| Molecule | circHomer1a expression relative to Vehicle (circHomer1a) | circRNA expression in DLPFC, BD patients vs unaffected Controls [1] | circRNA expression in OFC, BD patients vs unaffected Controls [2] | circRNA expression in OFC, SCZ patients vs unaffected Controls [2] | other results |
| --- | --- | --- | --- | --- | --- |
| O=C(CCCN1CCC(O)(c2ccc(Cl)cc2)CC1)c1ccc(F)cc1 [Haloperidol] | lack of effect | – | – | – | – |
| CCCC(CCC)C(=O)O [Valproic acid, valproic acid] | increase | – | – | – | – |
| B1 | – | not | reduced | reduced | – |
| B2 | – | – | unchanged | increased expression | Fold SCZ OFC [3]: 1.4626 |
| B3 | – | reduced | reduced | reduced | Fold BD OFC ([4]; circRNA expression, OFC of subjects with Bipolar Disorder vs unaffected Controls): 0.6440; circRNA expression in DLPFC, SCZ patients vs unaffected Controls ([1]; SCZ): reduced; circHomer1a expression in iPSC neuronal cultures, patients vs Control [5]: reduced; correlation of expression with duration of illness ([2]; SCZ and BD patients (FIGS. 4H, 5D; OFC and DLPFC)): positively correlated; correlation of expression with age of onset of disease ([2]; SCZ patients (FIGS. 4G, 5C; OFC and DLPFC)): positively correlated |
| B4 | – | – | decreased expression | unchanged | Fold BD OFC ([4]; circRNA expression in OFC, Bipolar Disorder vs unaffected Controls): 0.5247 |
